Data: paper PMC9672126

B1: Flag-BNIP3 wild-type (BCL2/adenovirus e1B 19 kDa protein interacting protein 3) [rat] / GFP-LC3 (microtubule-associated protein 1 light chain 3; plasmid pEGFP-C1-LC3B) [not stated] (parent)
chain 1: MSQSGEENLQGSWVELHFSNGNGSSVPASVSIYNGDMEKILLDAQHESGRSSSKSSHCDSPPRSQTPQDTNRAEIDTHSFGEKNSTLSEEDYIERRREVESILKKNSDWIWDWSSRPENVPPKEFLFKHPKRTATLSMRNTSVMKKGGIFSADFLKVFLPSLLLSHLLAIGLGIYIGRRLTTSTSTF
chain 2: not shown

Variants of: B1
Experiment: co-IP (anti-Flag immunoprecipitation, western blot, quantified)
Details: with GFP-LC3 (microtubule-associated protein 1 light chain 3; plasmid pEGFP-C1-LC3B); HeLa cells, 48 h after transfection; n = 3; means ± SEM; read off a plot

Going from chain 1 S60A T66A to chain 1 S60E, the ratio to parent (Folds of Control) rises from 0.13 to 0.85.

Compared with chain 1 S60D, chain 1 S60A is lower in ratio to parent (Folds of Control): 0.85 for the first, 0.33 for the second.
